From patent US20150344570A1 (published 2015)

T1: human FcγRIIb extracellular domain with C-terminal His tag (human, UniProt P31994 43-217)
T1 construct: extracellular domain; also called FcgRIIb; 2b; not shown: His tag attached to the C terminus
T1 sequence (looked up): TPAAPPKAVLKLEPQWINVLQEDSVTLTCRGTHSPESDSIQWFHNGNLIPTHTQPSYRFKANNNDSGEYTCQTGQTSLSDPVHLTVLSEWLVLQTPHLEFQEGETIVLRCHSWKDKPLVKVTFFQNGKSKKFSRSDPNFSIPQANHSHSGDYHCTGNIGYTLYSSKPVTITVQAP

B1: GpH7-B3 variant L328_06M/GpL16-k0 (Ho Ab) (antibody, human IgG1, kappa)
heavy: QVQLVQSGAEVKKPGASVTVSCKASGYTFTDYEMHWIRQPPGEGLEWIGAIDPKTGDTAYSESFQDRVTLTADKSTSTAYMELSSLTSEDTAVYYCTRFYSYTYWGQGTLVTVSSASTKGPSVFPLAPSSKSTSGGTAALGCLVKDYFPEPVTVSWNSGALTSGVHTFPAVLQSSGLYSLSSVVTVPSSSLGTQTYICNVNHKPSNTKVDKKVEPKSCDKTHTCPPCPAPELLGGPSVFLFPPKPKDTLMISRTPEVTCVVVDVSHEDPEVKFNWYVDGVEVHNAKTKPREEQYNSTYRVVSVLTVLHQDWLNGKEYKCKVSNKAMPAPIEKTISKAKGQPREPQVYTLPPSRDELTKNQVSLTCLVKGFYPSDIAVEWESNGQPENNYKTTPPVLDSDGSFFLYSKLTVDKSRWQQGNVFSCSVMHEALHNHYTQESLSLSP
light: DIVMTQSPLSLPVTPGEPASISCQASESLVHSNRNTYLHWYLQKPGQSPQLLIYKVSNRFSGVPDRFSGSGSGTDFTLKISRVEAEDVGVYYCSQNTHVPPTFGQGTKVEIERTVAAPSVFIFPPSDEQLKSGTASVVCLLNNFYPREAKVQWKVDNALQSGNSQESVTEQDSKDSTYSLSSTLTLSKADYEKHKVYACEVTHQGLSSPVTKSFNRGEC
notes: Anti-glypican-3 IgG1; mutation in both H chains; also called L328M homodimerized antibody
B2: GpH7-A5/GpH7-B3 variant L328_03V/GpL16-k0 (He Ab) (antibody, human IgG1, kappa)
heavy 1: not shown
heavy 2: not shown
light: B1 light
notes: Anti-glypican-3 IgG1; mutation only in the GpH7-B3-derived H chain; also called L328V heterodimerized antibody
B3: GpH7-B3 variant S337_10E/GpL16-k0 (Ho Ab) (antibody, human IgG1, kappa)
heavy: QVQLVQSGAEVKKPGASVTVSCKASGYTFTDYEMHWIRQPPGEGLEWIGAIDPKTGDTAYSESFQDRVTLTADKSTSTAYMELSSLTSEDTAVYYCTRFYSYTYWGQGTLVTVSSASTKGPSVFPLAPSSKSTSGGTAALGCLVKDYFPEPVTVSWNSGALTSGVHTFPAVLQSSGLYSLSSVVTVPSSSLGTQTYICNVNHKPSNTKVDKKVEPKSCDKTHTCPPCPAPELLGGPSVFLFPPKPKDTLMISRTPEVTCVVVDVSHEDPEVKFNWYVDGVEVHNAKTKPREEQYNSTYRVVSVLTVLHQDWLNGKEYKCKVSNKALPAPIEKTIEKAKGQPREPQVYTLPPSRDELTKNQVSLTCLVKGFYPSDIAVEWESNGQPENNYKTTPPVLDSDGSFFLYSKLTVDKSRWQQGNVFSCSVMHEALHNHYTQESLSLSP
light: B1 light
notes: Anti-glypican-3 IgG1; mutation in both H chains; also called S337E homodimerized antibody
B4: GpH7-A5/GpH7-B3 variant S267_03V/GpL16-k0 (He Ab) (antibody, human IgG1, kappa)
heavy 1: not shown
heavy 2: not shown
light: B1 light
notes: Anti-glypican-3 IgG1; mutation only in the GpH7-B3-derived H chain; also called S267V heterodimerized antibody
B5: GpH7-A5/GpH7-B3 variant L328_04F/GpL16-k0 (He Ab) (antibody, human IgG1, kappa)
heavy 1: not shown
heavy 2: not shown
light: B1 light
notes: Anti-glypican-3 IgG1; mutation only in the GpH7-B3-derived H chain; also called L328F heterodimerized antibody
B6: GpH7-B3 variant L328_15Y/GpL16-k0 (Ho Ab) (antibody, human IgG1, kappa)
heavy: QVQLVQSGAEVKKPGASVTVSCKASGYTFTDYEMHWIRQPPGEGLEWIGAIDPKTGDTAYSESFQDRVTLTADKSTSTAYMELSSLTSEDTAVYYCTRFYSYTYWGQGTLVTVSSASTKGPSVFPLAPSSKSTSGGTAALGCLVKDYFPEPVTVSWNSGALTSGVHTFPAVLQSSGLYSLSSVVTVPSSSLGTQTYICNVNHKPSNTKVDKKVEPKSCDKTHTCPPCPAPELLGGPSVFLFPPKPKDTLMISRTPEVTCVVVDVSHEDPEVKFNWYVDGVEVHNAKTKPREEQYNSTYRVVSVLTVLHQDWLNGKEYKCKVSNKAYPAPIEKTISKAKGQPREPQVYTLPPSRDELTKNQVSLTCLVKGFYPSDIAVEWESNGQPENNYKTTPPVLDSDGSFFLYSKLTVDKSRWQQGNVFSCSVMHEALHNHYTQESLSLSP
light: B1 light
notes: Anti-glypican-3 IgG1; mutation in both H chains; also called L328Y homodimerized antibody
B7: GpH7-A5/GpH7-B3 variant K334_18N/GpL16-k0 (He Ab) (antibody, human IgG1, kappa)
heavy 1: not shown
heavy 2: not shown
light: B1 light
notes: Anti-glypican-3 IgG1; mutation only in the GpH7-B3-derived H chain; also called K334N heterodimerized antibody
B8: GpH7-B3 variant P271_08L/GpL16-k0 (Ho Ab) (antibody, human IgG1, kappa)
heavy: not shown
light: B1 light
notes: Anti-glypican-3 IgG1; mutation in both H chains; also called P271L homodimerized antibody
B9: GpH7-B3 variant S239_09D/GpL16-k0 (Ho Ab) (antibody, human IgG1, kappa)
heavy: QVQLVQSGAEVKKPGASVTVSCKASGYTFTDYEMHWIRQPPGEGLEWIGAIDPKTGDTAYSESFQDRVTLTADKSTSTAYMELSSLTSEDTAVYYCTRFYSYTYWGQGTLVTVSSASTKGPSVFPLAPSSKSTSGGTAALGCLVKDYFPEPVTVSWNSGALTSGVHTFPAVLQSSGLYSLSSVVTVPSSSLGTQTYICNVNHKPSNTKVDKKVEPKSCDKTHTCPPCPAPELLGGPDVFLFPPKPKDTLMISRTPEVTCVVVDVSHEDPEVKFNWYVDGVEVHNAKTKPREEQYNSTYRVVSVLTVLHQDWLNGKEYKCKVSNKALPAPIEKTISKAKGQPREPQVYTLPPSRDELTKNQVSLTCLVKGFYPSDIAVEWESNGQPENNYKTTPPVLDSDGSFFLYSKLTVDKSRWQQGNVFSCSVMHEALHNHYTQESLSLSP
light: B1 light
notes: Anti-glypican-3 IgG1; mutation in both H chains; also called S239D homodimerized antibody
B10: GpH7-B3 variant S267_09D/GpL16-k0 (Ho Ab) (antibody, human IgG1, kappa)
heavy: not shown
light: B1 light
notes: Anti-glypican-3 IgG1; mutation in both H chains; also called S267D homodimerized antibody
B11: GpH7-A5/GpH7-B3 variant S267_08L/GpL16-k0 (He Ab) (antibody, human IgG1, kappa)
heavy 1: not shown
heavy 2: not shown
light: B1 light
notes: Anti-glypican-3 IgG1; mutation only in the GpH7-B3-derived H chain; also called S267L heterodimerized antibody
B12: GpH7-B3 variant S267_10E/GpL16-k0 (Ho Ab) (antibody, human IgG1, kappa)
heavy: not shown
light: B1 light
notes: Anti-glypican-3 IgG1; mutation in both H chains; also called S267E homodimerized antibody
B13: GpH7-A5/GpH7-B3 variant P271_08L/GpL16-k0 (He Ab) (antibody, human IgG1, kappa)
heavy 1: not shown
heavy 2: not shown
light: B1 light
notes: Anti-glypican-3 IgG1; mutation only in the GpH7-B3-derived H chain; also called P271L heterodimerized antibody
B14: GpH7-B3 variant S267_07I/GpL16-k0 (Ho Ab) (antibody, human IgG1, kappa)
heavy: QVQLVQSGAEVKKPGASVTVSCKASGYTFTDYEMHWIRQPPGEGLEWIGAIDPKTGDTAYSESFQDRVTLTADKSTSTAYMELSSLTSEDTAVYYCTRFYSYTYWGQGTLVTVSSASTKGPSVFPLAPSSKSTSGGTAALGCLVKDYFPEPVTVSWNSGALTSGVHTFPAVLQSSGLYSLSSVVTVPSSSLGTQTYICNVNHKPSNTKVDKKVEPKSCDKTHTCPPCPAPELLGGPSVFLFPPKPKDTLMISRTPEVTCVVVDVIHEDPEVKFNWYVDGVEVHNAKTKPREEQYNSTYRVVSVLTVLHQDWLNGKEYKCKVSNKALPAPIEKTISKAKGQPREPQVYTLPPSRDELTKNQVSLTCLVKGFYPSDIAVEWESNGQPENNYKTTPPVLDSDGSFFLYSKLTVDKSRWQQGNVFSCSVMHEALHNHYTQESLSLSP
light: B1 light
notes: Anti-glypican-3 IgG1; mutation in both H chains; also called S267I homodimerized antibody
B15: GpH7-A5/GpH7-B3 variant S239_09D/GpL16-k0 (He Ab) (antibody, human IgG1, kappa)
heavy 1: not shown
heavy 2: not shown
light: B1 light
notes: Anti-glypican-3 IgG1; mutation only in the GpH7-B3-derived H chain; also called S239D heterodimerized antibody
B16: GpH7-B3 variant S337_14T/GpL16-k0 (Ho Ab) (antibody, human IgG1, kappa)
heavy: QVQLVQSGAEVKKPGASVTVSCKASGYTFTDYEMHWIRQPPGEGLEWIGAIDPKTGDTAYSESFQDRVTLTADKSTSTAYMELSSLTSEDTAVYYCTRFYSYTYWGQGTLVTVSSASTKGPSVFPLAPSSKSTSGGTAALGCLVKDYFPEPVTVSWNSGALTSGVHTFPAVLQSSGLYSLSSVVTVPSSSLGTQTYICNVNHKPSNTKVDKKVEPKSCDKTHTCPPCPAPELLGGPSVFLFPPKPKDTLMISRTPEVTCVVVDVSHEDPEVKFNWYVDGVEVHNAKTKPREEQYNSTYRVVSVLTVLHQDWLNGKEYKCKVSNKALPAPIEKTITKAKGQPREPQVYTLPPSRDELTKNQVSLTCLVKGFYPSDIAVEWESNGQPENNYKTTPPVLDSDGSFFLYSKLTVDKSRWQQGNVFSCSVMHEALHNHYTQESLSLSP
light: B1 light
notes: Anti-glypican-3 IgG1; mutation in both H chains; also called S337T homodimerized antibody
B17: GpH7-B3 variant T335_08L/GpL16-k0 (Ho Ab) (antibody, human IgG1, kappa)
heavy: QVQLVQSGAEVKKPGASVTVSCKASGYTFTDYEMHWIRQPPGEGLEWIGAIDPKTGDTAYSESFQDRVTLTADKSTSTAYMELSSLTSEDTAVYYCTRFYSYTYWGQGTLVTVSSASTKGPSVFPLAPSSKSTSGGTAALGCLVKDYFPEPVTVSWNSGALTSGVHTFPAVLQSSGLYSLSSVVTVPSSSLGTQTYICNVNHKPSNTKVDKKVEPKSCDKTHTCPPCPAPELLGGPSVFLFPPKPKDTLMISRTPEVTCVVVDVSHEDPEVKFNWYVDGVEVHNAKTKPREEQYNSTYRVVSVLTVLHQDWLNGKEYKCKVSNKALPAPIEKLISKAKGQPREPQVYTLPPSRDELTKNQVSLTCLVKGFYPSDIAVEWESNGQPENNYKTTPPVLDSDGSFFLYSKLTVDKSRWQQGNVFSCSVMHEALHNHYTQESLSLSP
light: B1 light
notes: Anti-glypican-3 IgG1; mutation in both H chains; also called T335L homodimerized antibody
B18: GpH7-A5/GpH7-B3 variant S267_09D/GpL16-k0 (He Ab) (antibody, human IgG1, kappa)
heavy 1: not shown
heavy 2: not shown
light: B1 light
notes: Anti-glypican-3 IgG1; mutation only in the GpH7-B3-derived H chain; also called S267D heterodimerized antibody
B19: GpH7-A5/GpH7-B3 variant L328_19Q/GpL16-k0 (He Ab) (antibody, human IgG1, kappa)
heavy 1: not shown
heavy 2: not shown
light: B1 light
notes: Anti-glypican-3 IgG1; mutation only in the GpH7-B3-derived H chain; also called L328Q heterodimerized antibody
B20: GpH7-A5/GpH7-B3 variant P331_04F/GpL16-k0 (He Ab) (antibody, human IgG1, kappa)
heavy 1: not shown
heavy 2: not shown
light: B1 light
notes: Anti-glypican-3 IgG1; mutation only in the GpH7-B3-derived H chain; also called P331F heterodimerized antibody
B21: GpH7-B3 variant S337_09D/GpL16-k0 (Ho Ab) (antibody, human IgG1, kappa)
heavy: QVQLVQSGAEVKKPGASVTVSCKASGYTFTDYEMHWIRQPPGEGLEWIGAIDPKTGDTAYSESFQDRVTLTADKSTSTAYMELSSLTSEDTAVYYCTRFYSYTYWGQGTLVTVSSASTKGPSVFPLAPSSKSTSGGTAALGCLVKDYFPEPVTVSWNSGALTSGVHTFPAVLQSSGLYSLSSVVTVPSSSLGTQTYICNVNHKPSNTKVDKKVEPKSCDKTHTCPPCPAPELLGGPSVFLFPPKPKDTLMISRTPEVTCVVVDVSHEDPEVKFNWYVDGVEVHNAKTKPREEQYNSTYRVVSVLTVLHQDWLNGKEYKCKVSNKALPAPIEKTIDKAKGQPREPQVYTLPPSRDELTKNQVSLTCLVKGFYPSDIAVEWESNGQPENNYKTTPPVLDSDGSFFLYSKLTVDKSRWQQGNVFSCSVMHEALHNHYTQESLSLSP
light: B1 light
notes: Anti-glypican-3 IgG1; mutation in both H chains; also called S337D homodimerized antibody
B22: GpH7-A5/GpH7-B3 variant L328_15Y/GpL16-k0 (He Ab) (antibody, human IgG1, kappa)
heavy 1: not shown
heavy 2: not shown
light: B1 light
notes: Anti-glypican-3 IgG1; mutation only in the GpH7-B3-derived H chain; also called L328Y heterodimerized antibody
B23: GpH7-B3 variant S239_18N/GpL16-k0 (Ho Ab) (antibody, human IgG1, kappa)
heavy: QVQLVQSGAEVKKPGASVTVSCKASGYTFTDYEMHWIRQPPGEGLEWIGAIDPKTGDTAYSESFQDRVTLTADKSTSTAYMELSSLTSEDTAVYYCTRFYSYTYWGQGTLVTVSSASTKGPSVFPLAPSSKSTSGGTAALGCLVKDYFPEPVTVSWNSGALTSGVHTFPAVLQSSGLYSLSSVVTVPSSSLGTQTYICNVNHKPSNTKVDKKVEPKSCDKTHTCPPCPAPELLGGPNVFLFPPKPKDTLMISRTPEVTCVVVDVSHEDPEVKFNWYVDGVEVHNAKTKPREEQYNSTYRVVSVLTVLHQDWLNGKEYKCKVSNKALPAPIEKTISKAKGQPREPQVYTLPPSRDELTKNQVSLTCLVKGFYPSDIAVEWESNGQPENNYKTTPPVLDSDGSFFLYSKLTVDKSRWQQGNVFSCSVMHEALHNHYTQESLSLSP
light: B1 light
notes: Anti-glypican-3 IgG1; mutation in both H chains; also called S239N homodimerized antibody
B24: GpH7-B3 variant P271_01G/GpL16-k0 (Ho Ab) (antibody, human IgG1, kappa)
heavy: not shown
light: B1 light
notes: Anti-glypican-3 IgG1; mutation in both H chains; also called P271G homodimerized antibody
B25: GpH7-B3 variant S267_03V/GpL16-k0 (Ho Ab) (antibody, human IgG1, kappa)
heavy: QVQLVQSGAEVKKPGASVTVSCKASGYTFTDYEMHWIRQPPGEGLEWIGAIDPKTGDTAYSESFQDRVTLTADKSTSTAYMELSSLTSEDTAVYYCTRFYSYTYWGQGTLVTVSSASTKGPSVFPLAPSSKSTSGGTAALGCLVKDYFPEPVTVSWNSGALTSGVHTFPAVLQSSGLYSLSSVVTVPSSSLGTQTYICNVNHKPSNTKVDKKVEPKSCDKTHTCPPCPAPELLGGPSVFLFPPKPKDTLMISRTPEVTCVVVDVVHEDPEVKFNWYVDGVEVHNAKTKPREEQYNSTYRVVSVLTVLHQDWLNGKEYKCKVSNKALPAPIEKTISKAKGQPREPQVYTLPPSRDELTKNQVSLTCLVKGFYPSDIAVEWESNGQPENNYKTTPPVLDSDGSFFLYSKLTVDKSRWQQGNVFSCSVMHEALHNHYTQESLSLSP
light: B1 light
notes: Anti-glypican-3 IgG1; mutation in both H chains; also called S267V homodimerized antibody
B26: GpH7-A5/GpH7-B3 variant S239_01G/GpL16-k0 (He Ab) (antibody, human IgG1, kappa)
heavy 1: not shown
heavy 2: not shown
light: B1 light
notes: Anti-glypican-3 IgG1; mutation only in the GpH7-B3-derived H chain; also called S239G heterodimerized antibody
B27: GpH7-A5/GpH7-B3 variant S267_14T/GpL16-k0 (He Ab) (antibody, human IgG1, kappa)
heavy 1: not shown
heavy 2: not shown
light: B1 light
notes: Anti-glypican-3 IgG1; mutation only in the GpH7-B3-derived H chain; also called S267T heterodimerized antibody
B28: GpH7-B3 variant L328_07I/GpL16-k0 (Ho Ab) (antibody, human IgG1, kappa)
heavy: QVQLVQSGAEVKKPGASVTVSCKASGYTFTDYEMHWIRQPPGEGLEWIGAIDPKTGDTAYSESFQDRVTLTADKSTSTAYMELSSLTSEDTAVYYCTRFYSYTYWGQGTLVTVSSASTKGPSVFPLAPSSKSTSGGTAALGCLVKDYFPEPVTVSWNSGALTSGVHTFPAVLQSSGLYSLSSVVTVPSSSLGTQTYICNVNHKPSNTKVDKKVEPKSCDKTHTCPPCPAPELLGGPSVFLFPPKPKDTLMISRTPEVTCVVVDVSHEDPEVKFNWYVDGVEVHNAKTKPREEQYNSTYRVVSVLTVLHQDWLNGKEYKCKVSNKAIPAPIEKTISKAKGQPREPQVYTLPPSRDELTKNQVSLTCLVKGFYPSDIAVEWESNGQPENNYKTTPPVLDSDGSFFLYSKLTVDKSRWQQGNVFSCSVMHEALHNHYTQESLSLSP
light: B1 light
notes: Anti-glypican-3 IgG1; mutation in both H chains; also called L328I homodimerized antibody

Biological target: T1, human FcγRIIb extracellular domain with …
Test: SPR (Biacore T100), antibody captured on antigen peptide chip, FcγRIIb as analyte; relative binding
Protocol: Analysis of interaction between objective antibody and the FcγR was carried out using Biacore T100 (GE Healthcare). HBS-EP+ (GE Healthcare) was used as the running buffer, and the measurement temperature was set to 25° C. Chips produced by immobilizing the antigen peptide by the amine coupling method to a Series S Sencor Chip CM5 (GE Healthcare), or alternatively, chips produced by allowing preliminarily biotinylated antigen peptides to interact with and immobilize onto a Series S Sensor Chip SA (certified) (GE Healthcare) were used. Antibodies of interest were captured onto an antigen peptide-immobilized chip, and allowed to interact to each FcγR diluted with running buffer. To regenerate and repeatedly use the chip, the antibodies captured on the chip were washed off by reacting 10 mM glycine-HCl, pH 1.5.

Ho/Con_2b	He/Con_2b	Binder
171 % of control GpH7-B3/GpL16-k0 (=100)		B1
	126 % of control GpH7-A5/GpH7-B3/GpL16-k0 (=100)	B2
109 % of control GpH7-B3/GpL16-k0 (=100)		B3
	192 % of control GpH7-A5/GpH7-B3/GpL16-k0 (=100)	B4
	219 % of control GpH7-A5/GpH7-B3/GpL16-k0 (=100)	B5
272 % of control GpH7-B3/GpL16-k0 (=100)		B6
	115 % of control GpH7-A5/GpH7-B3/GpL16-k0 (=100)	B7
113 % of control GpH7-B3/GpL16-k0 (=100)		B8
224 % of control GpH7-B3/GpL16-k0 (=100)		B9
327 % of control GpH7-B3/GpL16-k0 (=100)		B10
	109 % of control GpH7-A5/GpH7-B3/GpL16-k0 (=100)	B11
396 % of control GpH7-B3/GpL16-k0 (=100)		B12
	103 % of control GpH7-A5/GpH7-B3/GpL16-k0 (=100)	B13
213 % of control GpH7-B3/GpL16-k0 (=100)		B14
	206 % of control GpH7-A5/GpH7-B3/GpL16-k0 (=100)	B15
110 % of control GpH7-B3/GpL16-k0 (=100)		B16
106 % of control GpH7-B3/GpL16-k0 (=100)		B17
	310 % of control GpH7-A5/GpH7-B3/GpL16-k0 (=100)	B18
	105 % of control GpH7-A5/GpH7-B3/GpL16-k0 (=100)	B19
	110 % of control GpH7-A5/GpH7-B3/GpL16-k0 (=100)	B20
116 % of control GpH7-B3/GpL16-k0 (=100)		B21
	193 % of control GpH7-A5/GpH7-B3/GpL16-k0 (=100)	B22
125 % of control GpH7-B3/GpL16-k0 (=100)		B23
229 % of control GpH7-B3/GpL16-k0 (=100)		B24
206 % of control GpH7-B3/GpL16-k0 (=100)		B25
	144 % of control GpH7-A5/GpH7-B3/GpL16-k0 (=100)	B26
	104 % of control GpH7-A5/GpH7-B3/GpL16-k0 (=100)	B27
188 % of control GpH7-B3/GpL16-k0 (=100)		B28
